The experiment addresses mature h(m)TGF-beta3 (mature form of human (mouse) TGF-beta3) (human (mouse); the filing says the mature forms are identical). The experiment in a line: cell-based or functional assay.

Experimental findings from patent WO2017204277A1 are described below.

GC1008-hIgG1 (antibody) showed a suppression of TGF-beta3 physiological activity (Smad signal), SEAP activity of HEK-Blue TGFb cells, OD620nm of 100%.
